Assay results published in US20050026838A1.

B1: Fibroblast Growth Factor 13 (recombinant human FGF-13, expressed in Escherichia coli) (ligand)
chain: MQGENHPSPNFNQYVRDQGAMTDQLSRRQIREYQLYSRTSGKHVQVTGRRISATAEDGNKFAKLIVETDTFGSRVRIKGAESEKYICMNKRGKLIGKPSGKSKDCVFTEIVLENNYTAFQNARHEGWFMAFTRQGRPRQASRSRQNQREAHFIKRLYQGQLPFPNHAEKQKQFEFVGSAPTRRTKRTRRPQPLT

Biological target: [125I]-FGF-1 binding sites on membranes prepared from adult rat cortex
Experiment: displacement of [125I]-FGF-1 by unlabelled FGF, membranes prepared from adult rat cortex

| Molecule | IC50 |
| --- | --- |
| FGF-2 (basic FGF) (from UniProt P09038 143-288) (ligand) | 0.2 nM |
| B1 | 1 nM |
